# Laboratory results as given in patent publication US8372810B2, “Anti-tumor drug, medicament, composition, and use thereof” (Gene Signal International SA, priority 2007, dated 2013).
# Where “and” joins values, the source holds several entries; their conditions need not be identical. Equal entries are not always repeated.
# Legend:
# tumor cell line NCI-H460 = test: Proliferation of other cell lines: NCI-H460; type: cell-based, human; conditions: even at high concentration
# HUVEC cells = test: Inhibition of endothelial cell proliferation in vitro (MTT); type: cell-based, human
# Method: HUVEC cells were cultured to confluency in complete EGM2-MV medium (Cambrex) at 37° C. and in 5% CO2 humidified atmosphere. Cells were then collected by trypsine-EDTA digestion (Versene, Eurobio). After 5 min, the enzymatic reaction was stopped by adding 3 ml of the culture medium containing 5% FCS. Cells were then centrifuged at 220 g for 10 min at room temperature, washed twice with 5 ml of culture medium, suspended in complete culture medium, counted and adjusted to 50 000 cells/ml. One hundred μL per well were then distributed to a 96-well cell culture grade micro-plate (5 000 cells/well) and incubated with different concentrations of the purified protein 497C-T2 in Tris-HCl 20 mM buffer (pH 8), containing 150 mM NaCl and urea 2M; this buffer was used as control.
# After 42 hrs at 37° C., cell proliferation was measured using thiazolyl blue tetrazolium bromide (MTT) method. Briefly, MTT (Sigma) was dissolved in PBS at 5 mg/ml, the solution was filtered (0.22 μm) and 10 μl were added to each well of the 96-well micro-plates. After 3 hrs of incubation at 37° C., 5% CO2 humidified atmosphere, the micro-plates were centrifuged at 220×g for 10 min, the supernatant was discarded, and the crystals dissolved by the addition of 100 μl of DMSO to each well. The optical density (OD) at 570 nm was then measured using μQuant micro-plate reader (Bio-Tek Instrument gmbh, Colmar, France) coupled to the KC4 (Bio-Tek) software.
# CALU-6 tumors = test: CALU-6 non-small cell lung cancer xenograft in Swiss Nude mice, tumor growth; type: in vivo
# Method: CALU-6 cells were cultured as adherent cells in complete EMEM medium (Ref. CM1MEM18-01, batch No. 462502, Eurobio, France) 10% fetal calf serum (FCS; Ref. CVFSVF00-01, batch No. 513021, Eurobio, France) under a 37° C., 5% CO2 humidified atmosphere. They were amplified in 75 cm^2-flasks to reach 90×10^6 cells.
# At D0, CALU-6 cells (human lung carcinoma) were collected from 75 cm^2-flasks by removing the medium and adding 3 ml of trypsine-EDTA (Ref. CEZTDA00-0U, batch No. 633920, Eurobio, France). After 5 min of incubation at 37° C., cells had detached from the plastic and the enzymatic reaction was stopped by adding 3 ml of EMEM medium containing 10% fetal calf serum. Cells were then centrifuged at 700 g for 5 min at room temperature. They were resuspended in serum-free EMEM culture medium. Cells were counted and viability assessment by Trypan Blue exclusion (Ref. CSTCOL03-OU, batch No. 434511, Eurobio, France). The number of viable CALU-6 cells was >99%. The number of cells was then adjusted to 25×10^6 cells/ml in serum-free medium.
# CALU-6 cells 5×10^6 cells/mouse in 200 μl of serum-free medium) were then implanted subcutaneously in the right flank of each mouse.
# At D12 post-implantation of the CALU-6 cells, the thirty mice were randomized into six groups of 5 mice. Tumor volumes had reached 228 to 468 mm^3 and mean tumor volumes were not statistically different between groups after randomization.
# Mean tumor volumes (MTV), mean relative tumor volume (MRTV) and tumor growth inhibition (T/C) were calculated as for example 7.
# [1] = IP Q2DX8, CDDP 5 mg/kg (G2), 497C-T2 10 mg/kg (G3), 497C-T2 10 mg/kg + CDDP 5 mg/kg (G4)
molecule,measurement,setting,value
"497C-T2: entire LEL domain of protein 497C, SEQ ID NO:3 (112 amino acids); as produced SEQ ID NO:8, with N-terminal His-Tag and C-terminal tail, 24 kD (protein, listed as Homo sapiens, X: residue not identified in the source) MHHHHHHSSGLVPRGSGMKETAAAKFERQHMDSPDLGTDDDDKISGFVFRHEIKDTFLRTYTDAMQTYNGNDERSRAVDHVQRSLSCCGVQNYTNWSTSPYFLEHGIPPSCCMNETDCNPQDLHNLTVAATKVNQKGCYDLVTSFMETNMGIIAGDRASPQPWRYRIRILAPSTSLRPHSSTTTTTTXIRLLTKPERKLSWLLPPLSNN",anti-proliferative effect,tumor cell line NCI-H460,without any detectable anti-proliferative effect
same,concentration significantly inhibiting human endothelial cell proliferation (as low as),HUVEC cells,500 nM
same,% inhibition of endothelial cell proliferation,"HUVEC cells; 5 μM (122 μg) 497C-T2, 42 hrs, relative to control, 5 µM",77% and 75%
same,inhibition of human endothelial cell proliferation,"HUVEC cells; increasing concentrations, FIG. 1",inhibited human endothelial cell proliferation in a dose dependent manner
same,anti-tumoral activity,"CALU-6 tumors; CALU-6, monotherapy (G3) or combined with CDDP (G4)",slight anti-tumoral activity
same,"Growth inhibition based on T/C ratio, T/C ratio (%) D14",CALU-6 tumors; [1],10%
same,"Growth inhibition based on T/C ratio, T/C ratio (%) D16",CALU-6 tumors; [1],33%
same,"Growth inhibition based on T/C ratio, T/C ratio (%) D18",CALU-6 tumors; [1],7%
same,"Growth inhibition based on T/C ratio, T/C ratio (%) D20",CALU-6 tumors; [1],13%
same,"Growth inhibition based on T/C ratio, T/C ratio (%) D22",CALU-6 tumors; [1],26%
same,"Growth inhibition based on T/C ratio, T/C ratio (%) D24",CALU-6 tumors; [1],24%
same,"Growth inhibition based on T/C ratio, T/C ratio (%) D26",CALU-6 tumors; [1],39%
same,"Growth inhibition based on T/C ratio, T/C ratio (%) D28",CALU-6 tumors; [1],27%
same,MRTV D14,CALU-6 tumors; [1],1.64
same,MRTV D16,CALU-6 tumors; [1],2.11
same,MRTV D18,CALU-6 tumors; [1],2.34
same,MRTV D20,CALU-6 tumors; [1],3.22
same,MRTV D22,CALU-6 tumors; [1],3.09
same,MRTV D24,CALU-6 tumors; [1],4.31
same,MRTV D26,CALU-6 tumors; [1],4.60
same,MRTV D28,CALU-6 tumors; [1],6.02
same,MRTV D12,"CALU-6 tumors; reference day, IP Q2DX8, CDDP 5 mg/kg (G2), 497C-T2 10 mg/kg (G3), 497C-T2 10 mg/kg + CDDP 5 mg/kg (G4)",1
